For the assay, the target named is csk21_human CSNK2A1 (UniProt P68400).
UniProt P68400, sequence (P68400 whole entry, looked up): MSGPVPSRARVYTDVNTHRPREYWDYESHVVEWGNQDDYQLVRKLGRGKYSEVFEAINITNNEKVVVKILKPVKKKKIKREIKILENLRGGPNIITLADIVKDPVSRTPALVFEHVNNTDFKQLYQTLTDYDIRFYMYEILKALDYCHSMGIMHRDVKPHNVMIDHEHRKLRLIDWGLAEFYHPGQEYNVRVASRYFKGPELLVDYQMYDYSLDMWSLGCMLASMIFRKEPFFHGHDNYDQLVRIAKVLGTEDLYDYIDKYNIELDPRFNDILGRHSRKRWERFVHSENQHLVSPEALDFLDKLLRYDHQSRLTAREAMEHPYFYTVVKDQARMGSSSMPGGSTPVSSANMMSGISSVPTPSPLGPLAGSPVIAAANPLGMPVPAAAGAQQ

With “Mediator of DNA damage checkpoint protein 1 (Homo sapiens), Q14676 T301A”, the “effect of a mutation on the interaction” value is listed as “disrupting interaction”. Then “Mediator of DNA damage checkpoint protein 1 (Homo sapiens), Q14676 T331A”, with “disrupting interaction”.

The values above are taken from IntAct's records for PubMed 18583988.
